The record followed here is the supplement of paper PMC12042874.

± gives the uncertainty stated by the source.

This series is described as follows: amyloid nucleation score (Sup35N fusion, yeast selection) (log enrichment); library NNK2; higher = more nucleation; inactive = no reads after selection. Summed up:
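The nucleation score equals the log enrichment of output over input reads from DiMSum, centred on the mode score of non-aggregating sequences. It was computed only for sequences with 100 or more input reads. The reads came from Illumina sequencing of plasmid inserts from psi-negative yeast expressing Sup35N fused to peptides of 20 random codons, induced with 100 μM copper sulfate for 24 hours and grown 7 days at 30°C without adenine and uracil.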
As for DWVINS, the amyloid nucleation score is -0.462 ± 0.78.

For the substance NLLLFWSSHLSNECGSNSLG, the amyloid nucleation score came to 4.66 ± 0.1.

With LANFGIIVWCCTCFYDD, the amyloid nucleation score was 8.268 ± 0.039.

Regarding CNCQYHSVWIT, the amyloid nucleation score came out at 0.392 ± 0.26.

In turn, LLYTDYMMIYCIAFMLSDDY yielded an amyloid nucleation score of -0.916 ± 1.1.

On to FTMGVRRLCYSWLRARFVKC, for which the amyloid nucleation score is -0.368 ± 1.

IFVCNMFVSYNSGNSGWCSV: the amyloid nucleation score was found to be 7.675 ± 0.042.

Regarding TGHWMGPSDYRQRVCH, the amyloid nucleation score entry is “inactive”.

For the substance ERPWRRQRCAFKVSWVGADL, the amyloid nucleation score worked out at 0.632 ± 0.19.

NLMWTLNLF came in with an amyloid nucleation score of 8.253 ± 0.058.

SQVGTW displayed an amyloid nucleation score of 0.795 ± 0.41.

For NAFSKSIFKNMTQQKDQLSE, the amyloid nucleation score result is “inactive”.

As to YTLFYARNLSSMDVICN, the amyloid nucleation score is -1.09 ± 0.76.

Consider LHFGAGLTSSVCPSLYSQ, for which the amyloid nucleation score was -0.931 ± 1.1.

Take TLFLSMLLMASSCYMTCCGD: the amyloid nucleation score is -0.119 ± 0.55.

Turning to LFMLGMSAQLVFAFSLLGGI, the amyloid nucleation score came out at 2.62 ± 0.078.

In turn, PSKPC had an amyloid nucleation score of -1.72 ± 0.75.

As to YYIAI, the amyloid nucleation score is -0.619 ± 1.

Substance RADVRMFLTRGLKVDFG gave an amyloid nucleation score of -0.322 ± 0.49.

The substance SRWLSQSPDHSWGGQTYGMS had an amyloid nucleation score of -0.023 ± 0.63.

In turn, IWRCNPG came in with an amyloid nucleation score of 1.04 ± 0.68.

Take YSFMS: the amyloid nucleation score is -0.458 ± 0.27.

Substance VSNFSRYHLSCYSMVRLLLD displayed an amyloid nucleation score of -0.532 ± 0.36.

Turning to SEWEYPNINE, the amyloid nucleation score entry is “inactive”.

Substance VYTTDLPFIYVLSVFMFIHG came in with an amyloid nucleation score of -0.447 ± 0.27.

For the substance VVVRNGLLNISFKVNRCGFG, the amyloid nucleation score was found to be 8.662 ± 0.055.

For the substance NHSMRPNRTVSGMLTSIYYR, the amyloid nucleation score is -0.533 ± 0.55.

Turning to FMMTRKGIFELHFISRE, the amyloid nucleation score was 0.097 ± 1.1.

For SLLIFMSFYYWLQVSYRPPR, the amyloid nucleation score is -1.3 ± 1.1.

Substance GPCDQSWAT registered an amyloid nucleation score of 1.06 ± 0.19.

In turn, VHDRLRLGWGAYGYPFGVLM returned an amyloid nucleation score of 0.027 ± 1.

PMFCSLVLRI returned an amyloid nucleation score of -0.383 ± 0.41.

AKRDMAKKYLSGYHGVLWYV: the amyloid nucleation score stood at 0.077 ± 0.63.

On to VLCFCRDFLFVLIQNPFTFP, for which the amyloid nucleation score entry is “inactive”.

Take HPTSYVPSYLSFASKWLRVA: the amyloid nucleation score amounted to 0.571 ± 0.3.

With RTSKGAA, the amyloid nucleation score came out at 1.21 ± 0.45.

Regarding MVILVLFASTVLQYTVPFWV, the amyloid nucleation score is 0.247 ± 0.5.

The substance LGMSGCVCSYVYLRGFGLIL registered an amyloid nucleation score of -0.658 ± 0.37.

As to KSRIDSESGGGQSFS, the amyloid nucleation score was -0.805 ± 0.63.

Consider NSSTTHAGLVYYYSGKGPRV, for which the amyloid nucleation score entry was “inactive”.

NILMY yielded an amyloid nucleation score of -0.46 ± 1.

As for CNVAHRLRVRSVAK, the amyloid nucleation score was 0.789 ± 0.47.

ELSGGQTLLCRSVYLDVDRV returned an amyloid nucleation score of 3.74 ± 0.064.

Turning to RSLDIARAY, the amyloid nucleation score was -1.06 ± 0.4.

Take SEWSQKRGLVYTVQEFQKLY: the amyloid nucleation score result is “inactive”.

CYSLWRFEQMKLGMKLRGMT had an amyloid nucleation score of 0.003 ± 0.43.

On to HVMNGCGLYGQGSSRYYQTV, for which the amyloid nucleation score is 0.957 ± 0.26.

NTWYLTKADLDRVGAVMVQT: the amyloid nucleation score result is “inactive”.

KLANYHLARDSFMVRKHRKG yielded an amyloid nucleation score of 0.602 ± 0.57.

In turn, MSLHPMRLHQWRPESIVLTE gave an amyloid nucleation score of 0.365 ± 0.66.

For the substance IAVSMNEMGY, the amyloid nucleation score entry is “inactive”.

In turn, YTAIVRFWWVTQSVQFKNRD registered an amyloid nucleation score of -0.143 ± 0.8.

Consider CRISQTFF, for which the amyloid nucleation score was 1.82 ± 0.15.

As to LSLYWVMSLKSQAP, the amyloid nucleation score was 0.354 ± 0.64.

With IFVYY, the amyloid nucleation score was -0.162 ± 0.4.

Turning to DGKMNPVSAY, the amyloid nucleation score entry is “inactive”.

The substance YGKKCLSKAKKSTKISLPG had an amyloid nucleation score of 0.016 ± 1.1.

In the case of YLRTFAKYWNPNARQLSIMR, the amyloid nucleation score result is “inactive”.

Consider NFAVLYYIFVHIWLQCSNSE, for which the amyloid nucleation score is -0.969 ± 0.41.

As to AVISGCFMRGLTTRIRTTLM, the amyloid nucleation score is -0.073 ± 0.74.

Regarding RCRISVWVVGSCLSRMYG, the amyloid nucleation score came out at 4.29 ± 0.056.

LSSGEYVSSGMRGTSCEKSK yielded an amyloid nucleation score of -0.007 ± 0.79.

YNARFSTNLTRFGVGF displayed an amyloid nucleation score of -1.15 ± 1.1.

LYRSSLRFMPTIICETVWMY: the amyloid nucleation score entry is “inactive”.

VWLRYYMCFNFVWSIVGVRI: the amyloid nucleation score was 3.81 ± 0.052.

Consider ACCSCIIVFINFTSLFFYRF, for which the amyloid nucleation score was -0.178 ± 1.1.

In turn, VIQNYL had an amyloid nucleation score of -0.624 ± 0.39.

Turning to YHFTLGCNSEGCR, the amyloid nucleation score is -0.668 ± 0.24.

Take FVVLFLFYFEVFAVYKVSLG: the amyloid nucleation score entry was “inactive”.

In the case of ALMTVASRKTLIPVGAKQMN, the amyloid nucleation score result is “inactive”.

Substance WLIGRNAKSWAWVFLKRSTG returned an amyloid nucleation score of 0.392 ± 0.25.

In turn, LCLVQLSDSCNQ yielded an amyloid nucleation score of 7.917 ± 0.055.

In turn, TGVKRIMSGSIIFPFLAVSF registered an amyloid nucleation score of -0.751 ± 1.1.

NFIFDFVV: the amyloid nucleation score is -0.03 ± 0.21.

In turn, WALSHYVCNTYYSNHSVSNT came in with an amyloid nucleation score of 5.57 ± 0.052.

In turn, DNCRYVKRSSYSRVCAHYKS showed an amyloid nucleation score of -0.627 ± 0.41.

In turn, TMKWLCN showed an amyloid nucleation score of 4.69 ± 0.054.

The substance TSLFI came in with an amyloid nucleation score of 0.487 ± 0.6.

Take SGNICIPFY: the amyloid nucleation score entry is “inactive”.

On to VCPPSDVS, for which the amyloid nucleation score result is “inactive”.

Turning to PKIMKFGKCYTP, the amyloid nucleation score came out at 0.065 ± 0.28.

With EEMMFPFAFVFFICSFRNRL, the amyloid nucleation score was found to be 2.9 ± 0.065.

As to CLLYDQGFWQAGVLNVVAAR, the amyloid nucleation score is -0.085 ± 0.29.

In the case of LMVESNWHALHLVYVFSYI, the amyloid nucleation score was 0 ± 0.56.

As to FKFGPMDSIKYMSANFISQC, the amyloid nucleation score was -0.189 ± 0.64.

Regarding YVSSVAIAFGLSVGLAYYPP, the amyloid nucleation score was found to be 5.26 ± 0.059.

In turn, EYGVAT registered an amyloid nucleation score of 1.17 ± 0.18.

In the case of LVVCKHVV, the amyloid nucleation score is -0.323 ± 0.56.

Regarding MFGHHKS, the amyloid nucleation score is -0.5 ± 0.63.

For QFTCYTVYNGYWA, the amyloid nucleation score worked out at 3.28 ± 0.15.

On to KCTTVIYYMCIGLRH, for which the amyloid nucleation score is 4.98 ± 0.041.

Substance FPTIDRQVFDVRR displayed an amyloid nucleation score of -1.17 ± 0.41.

NSYFGRAFNVSMPYKLRWKF displayed an amyloid nucleation score of -1.41 ± 1.1.

With YPSCKGSMPVFYSFPGGENA, the amyloid nucleation score is 0.524 ± 0.5.

For RFIRSWNFCDRD, the amyloid nucleation score entry is “inactive”.

For the substance LYVLTNSGPHCLCVGMMHYN, the amyloid nucleation score result was “inactive”.

GDFDKDV came in with an amyloid nucleation score of -0.188 ± 0.5.

For CDVRSPSF, the amyloid nucleation score was -1.02 ± 0.3.

The substance PFQVFILHYA came in with an amyloid nucleation score of 6.356 ± 0.042.

Take KSVYLSIGDILAFFSIVLLY: the amyloid nucleation score entry was “inactive”.

EGCMSFFKRSQYATDQDLGA returned an amyloid nucleation score of -0.24 ± 0.39.

Take VMNMRLLRANLPWTLAWRVQ: the amyloid nucleation score is 0.122 ± 0.35.

Regarding QYIPMSLNCQLQYGSHAGQE, the amyloid nucleation score was -0.216 ± 0.49.

The substance YAVENTLYHVRVVTLQSISW displayed an amyloid nucleation score of 0.153 ± 0.79.

VFWLLGCVHNRGVGQTSHKL gave an amyloid nucleation score of 0.741 ± 0.47.
